This note sets out measurements from patent publication US20060148705A1 (Regeneron, published 2006).

By t½ is commonly meant the time needed for the level to fall by half in the phase considered. One may read the Kd as the free concentration of one partner at which half of the binding sites on the other are occupied at equilibrium, for simple one-to-one binding. Read a low Kd as a tighter complex. Broadly, the koff is a measure of how fast the partners let go of each other. The term kon denotes the second-order rate constant of association. Low readings indicate slower complex formation, high ones faster complex formation.

For assay [1], the target named is T1, human VEGF165 (human, UniProt P15692-4 27-191).
T1 construct: also called hVEGF165
T1 sequence (P15692 other isoform, or with tags, fused parts or gaps limits assumed): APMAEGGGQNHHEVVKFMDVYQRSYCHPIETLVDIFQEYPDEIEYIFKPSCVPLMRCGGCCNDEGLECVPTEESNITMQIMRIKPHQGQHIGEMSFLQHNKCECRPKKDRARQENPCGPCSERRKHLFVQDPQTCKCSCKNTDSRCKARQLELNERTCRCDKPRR
Kind of assay: BIAcore 2000; t½ = 0.693/kd. As to the method: (§1) Binding assays were carried out by first capturing around 100 RU of each fusion protein construct to the immobilized anti-VEGFR1 mAb, after which various concentrations (0-2 nM) of human VEGF165 were injected over the captured fusion protein surface at a flow rate of 100 μl/min for 2 minutes. The fusion protein constructs binding kinetic parameters including ka (1/Ms) (association rate constant), kd (1/s) (dissociation rate constant) and KD (dissociation equilibrium constant) were determined using the BIA evaluation 4.1 computer program (Biacore, Inc.), and t½ was determined using formula 0.693/kd (dissociation rate).
(In general: Surface plasmon resonance follows binding to a sensor surface in real time, without labels.)

Assay [2] addresses T1, human VEGF165. The assay can be described thus: BIAcore 2000; fusion protein captured on anti-VEGFR1 mAb, human VEGF165 (0-2 nM) injected. As to the method:
as §1

Assay [3] concerns the target T1, human VEGF165. Kind of assay: half-life of dissociation from hVEGF165, as described in WO/0075319.
In assay [4] the target is T1, human VEGF165. Kind of assay: kinetic dissociation rate from hVEGF165, as described in WO/0075319.

B1: fusion protein R1R2R1R2 (SEQ ID NO:24), single chain VEGF mini-trap (receptor)
chain: SDTGRPFVEMYSEIPEIIHMTEGRELVIPCRVTSPNITVTLKKFPLDTLIPDGKRIIWDSRKGFIISNATYKEIGLLTCEATVNGHLYKTNYLTHRQTNTIIDVVLSPSHGIELSVGEKLVLNCTARTELNVGIDFNWEYPSSKHQHKKLVNRDLKTQSGSEMKKFLSTLTIDGVTRSDQGLYTCAASSGLMTKKNSTFVRVHEKGPGRPFVEMYSEIPEIIHMTEGRELVIPCRVTSPNITVTLKKFPLDTLIPDGKRIIWDSRKGFIISNATYKEIGLLTCEATVNGHLYKTNYLTHRQTNTIIDVVLSPSHGIELSVGEKLVLNCTARTELNVGIDFNWEYPSSKHQHKKLVNRDLKTQSGSEMKKFLSTLTIDGVTRSDQGLYTCAASSGLMTKKNSTFVRVHEK
notes: Monomer, secreted from CHO K1 cells; also called R1R2-R1R2 VEGF mini-trap; (R1R2)2
As to B1, in the assay with human VEGF165 [1], the “t½” value was found to be 24.1 h. In addition, in the assay with human VEGF165 [2], binding was characterised by a dissociation constant (Kd) of 1.76 pM, the off-rate constant (koff) came out at 8e-06 s⁻¹ and the kon was determined as 4.54e+06 M⁻¹ s⁻¹.

B2: recombinant monomeric R1R2-myc myc his (receptor, not shown: small tags and cut ends)
chain: GRPFVEMYSEIPEIIHMTEGRELVIPCRVTSPNITVTLKKFPLDTLIPDGKRIIWDSRKGFIISNATYKEIGLLTCEATVNGHLYKTNYLTHRQTNTIIDVVLSPSHGIELSVGEKLVLNCTARTELNVGIDFNWEYPSSKHQHKKLVNRDLKTQSGSEMKKFLSTLTIDGVTRSDQGLYTCAASSGLMTKKNSTFVRVHEK
modifications: Monomer with a C-terminal myc-myc-His tag that is not given in letters and is left out.
notes: Monomer; also called R1R2-myc myc his monomer
With B2, in the assay with human VEGF165 [3], the “T1/2” value worked out at 1.68 min. Moreover, in the assay with human VEGF165 [4], the dissociation rate constant (koff) amounted to 0.00674 s⁻¹.
